The record followed here is article PMC8678608, “A Novel Bispecific Antibody Targeting PD-L1 and VEGF With Combined Anti-Tumor Activities” (Frontiers in Immunology, 2021).

Experiment [1] addresses T1, human VEGF165 protein (human).
T1 construct: human VEGF-A, the 165-residue isoform VEGF165; also called VEGF dimer; source: bought: Sino Biological Inc. (11066-HNAH)
As to the kind of experiment: ELISA; plates coated with recombinant human PD-L1 or VEGF165 (100 ng/well, carbonate buffer); antibody 1 h at room temperature; detected with HRP goat anti-human Fc, TMB, 450 nm. Particulars: both partners purified.

The target in experiment [2] is T1, human VEGF165 protein. In words: SPR; Biacore 8K, 25 °C; antibody or fusion protein captured by anti-human IgG (Fc) on a CM5 chip; analyte (VEGF165 from 3 nM or PD-L1 from 50 nM, 2-fold titrations) injected 120 s, dissociation 1800 s, 30 μL/min; single-cycle kinetics, 1:1 model; no enhancement step (buffer). As to conditions: both partners purified.
For experiment [3], the target named is T2, human PD-L1 (Homo sapiens (Human)., UniProt Q9NZQ7). In words: cell-based or functional assay.
The target in experiment [4] is T2, human PD-L1. As to the kind of experiment: SPR; valence: HB0025 (300 RU), HB0023 (250 RU) or HB002.1T (200 RU) captured; 200 nM PD-L1 injected twice for 60 s, then 10 nM VEGF165 twice for 60 s; stoichiometric ratio from response units and molecular weights; running buffer pH 7.4. Particulars: both partners purified.
For experiment [5], the target named is T2, human PD-L1. As to the kind of experiment: ELISA; plates coated with recombinant human PD-L1 or VEGF165 (100 ng/well, carbonate buffer); antibody 1 h at room temperature; detected with HRP goat anti-human Fc, TMB, 450 nm. As to conditions: both partners purified.
Experiment [6] deals with T2, human PD-L1. As to the kind of experiment: SPR; as a1, but 10 nM human VEGF165 injected first to saturate VEGF binding by captured HB0025, then PD-L1 as analyte. Particulars: both partners purified.
Experiment [7] concerns the target T2, human PD-L1. In words: SPR; Biacore 8K, 25 °C; antibody or fusion protein captured by anti-human IgG (Fc) on a CM5 chip; analyte (VEGF165 from 3 nM or PD-L1 from 50 nM, 2-fold titrations) injected 120 s, dissociation 1800 s, 30 μL/min; single-cycle kinetics, 1:1 model; no enhancement step (buffer). As to conditions: both partners purified.

T2 sequence (Q9NZQ7 19-238): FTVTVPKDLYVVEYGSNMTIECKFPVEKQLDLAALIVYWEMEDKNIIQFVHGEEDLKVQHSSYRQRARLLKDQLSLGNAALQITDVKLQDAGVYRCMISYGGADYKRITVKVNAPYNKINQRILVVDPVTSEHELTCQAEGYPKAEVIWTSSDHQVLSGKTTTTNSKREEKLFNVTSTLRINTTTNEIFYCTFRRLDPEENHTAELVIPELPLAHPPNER

B1: HB002.1T (VEGFR1D2-Ig fusion protein) (Fc fusion)
chain: SDTGRPFVEMYSEIPEIIHMTEGRELVIPCRVTSPNITVTLKKFPLDTLIPDGKRIIWDSRKGFIISNATYKEIGLLTCEATVNGHLYKTNYLTHRQTNTIID
modifications: Fc-dimerised fusion: D2 at the N-terminus of IgG Fc, with Fc and any linker left out. Limits are inferred from HB0025 numbering, assuming HB002.1T has the same D2. N36/N68 and the N99-T100 cleavage …
On to B1, for which the EC50 with human VEGF165 protein [1] turned out to be 0.17 nM. In the experiment with human VEGF165 protein [2], the Kd was found to be 0.00111 nM, the koff was found to be 5.03e-05 s⁻¹ and the kon worked out at 4.54e+07 M⁻¹ s⁻¹.

B2: HB0025 (anti-PD-L1/VEGFR1D2-Ig fusion protein) (bispecific antibody, V domains shown)
VH: QVQLVQSGAEVKKPGASVKVSCKASGYAFTGYTIHWVRQAPGQRLEWMGWFYPGSGTLKYSEKFQGRVTITRDKSLSTAYMELSSLRSEDTAVYYCARHGTGTLMAMDYWGQGTLVTVSS
VL: DVVMTQTPLSLSVTPGQPASISCKSSQSLANSYGNTYLSWYLHKPGQSPQLLIYGISNRFSGVPDRFSGSGSGTDFTLKISRVEAEDVGVYYCLQGTHQPPTFGQGTKLEIK
notes: soluble extracellular domain 2 of human VEGF receptor 1 (VEGFR1D2); humanized VH of the parent anti-PD-L1 antibody HB0023; human IgG1 heavy constant domains, as in the heavy chain of HB0023; IgG1-like mAb-Trap format; Clinical trial NCT04678908; also called bispecific antibody; BsAb; copies: 2 +
Regarding B2, the “EC50 of the recovery of IL-2 secretion in a mixed lymphocyte reaction (DCs and PBMCs, 3.8 pM-25 nM antibody); blocks PD-1/PD-L1” value with human PD-L1 [3] was around 509 pM. The “stoichiometry N” value in the experiment with human PD-L1 [4] is around 1.7 PD-L1 monomers per HB0025. Moreover, the EC50 with human PD-L1 [5] stood at 0.67 nM. Moreover, in the experiment with human PD-L1 [6], the Kd is 1.98 nM, the off-rate constant (koff) is 0.000395 s⁻¹ and the kon was determined as 200000 M⁻¹ s⁻¹. In the experiment with human PD-L1 [7], the Kd was 1.76 nM, the koff worked out at 0.00051 s⁻¹ and the kon is 290000 M⁻¹ s⁻¹.
